Laboratory results published in patent US11046988B2, “Process for the modification of a glycoprotein using a β-(1,4)-N-acetylgalactosaminyl transferase or a mutant thereof” (Synaffix B.V., priority 2014, dated 2021).
Where a chain is given by its changes, count along the chain named. Names may count otherwise.

B1: TnGalNAcT(W336F): T. ni GalNAcT mutant, tryptophan 336 to phenylalanine, SEQ ID NO: 50 (protein)
chain: MGSSHHHHHHSSGLVPRGSHMSPLRTYLYTPLYNATQPTLRNVERLAANWPKKIPSNYIEDSEEYSIKNISLSNHTTRASVVHPPSSITETASKLDKNMTIQDGAFAMISPTPLLITKLMDSIKSYVTTEDGVKKAEAVVTLPLCDSMPPDLGPITLNKTELELEWVEKKFPEVEWGGRYSPPNCTARHRVAIIVPYRDRQQHLAIFLNHMHPFLMKQQIEYGIFIVEQEGNKDFNRAKLMNVGFVESQKLVAEGWQCFVFHDIDLLPLDTRNLYSCPRQPRHMSASIDKLHFKLPYEDIFGGVSAMTLEQFTRVNGFSNKYWGFGGEDDDMSYRLKKINYHIARYKMSIARYAMLDHKKSTPNPKRYQLLSQTSKTFQKDGLSTLEYELVQVVQYHLYTHILVNIDERS
modifications: His6-TnGalNAcT(33-421; W336F)
B2: TnGalNAcT(L302A): T. ni GalNAcT mutant, leucine 302 to alanine, SEQ ID NO: 43 (protein)
chain: B1 chain with L291A, F325W
modifications: His6-TnGalNAcT(33-421; L302A)
B3: TnGalNAcT(L302G): T. ni GalNAcT mutant, leucine 302 to glycine, SEQ ID NO: 44 (protein)
chain: B1 chain with L291G, F325W
modifications: His6-TnGalNAcT(33-421; L302G)
B4: TnGalNAcT(E339A): T. ni GalNAcT mutant, glutamic acid 339 to alanine, SEQ ID NO: 53 (protein)
chain: B1 chain with F325W, E328A
modifications: His6-TnGalNAcT(33-421; E339A)
B5: β4GalT(Y289L,M344H): double mutant β-1,4-galactosyltransferase 1 described by Ramakrishnan et al. (protein, UniProt P08037 1-402, looked up, variant Y289L M344H)
chain: MKFREPLLGGSAAMPGASLQRACRLLVAVCALHLGVTLVYYLAGRDLRRLPQLVGVHPPLQGSSHGAAAIGQPSGELRLRGVAPPPPLQNSSKPRSRAPSNLDAYSHPGPGPGPGSNLTSAPVPSTTTRSLTACPEESPLLVGPMLIEFNIPVDLKLVEQQNPKVKLGGRYTPMDCISPHKVAIIIPFRNRQEHLKYWLYYLHPILQRQQLDYGIYVINQAGESMFNRAKLLNVGFKEALKDYDYNCFVFSDVDLIPMNDHNTYRCFSQPRHISVAMDKFGFSLPYVQLFGGVSALSKQQFLSINGFPNNYWGWGGEDDDIYNRLAFRGMSVSRPNAVIGKCRHIRHSRDKKNEPNPQRFDRIAHTKETMLSDGLNSLTYMVLEVQRYPLYTKITVDIGTPS
B6: TnGalNAcT(W336H): T. ni GalNAcT mutant, tryptophan 336 to histidine, SEQ ID NO: 51 (protein)
chain: MGGRATRALRLLLLLVLALAAVEYLFGSILDASPLRTYLYTPLYNATQPTLRNVERLAANWPKKIPSNYIEDSEEYSIKNISLSNHTTRASVVHPPSSITETASKLDKNMTIQDGAFAMISPTPLLITKLMDSIKSYVTTEDGVKKAEAVVTLPLCDSMPPDLGPITLNKTELELEWVEKKFPEVEWGGRYSPPNCTARHRVAIIVPYRDRQQHLAIFLNHMHPFLMKQQIEYGIFIVEQEGNKDFNRAKLMNVGFVESQKLVAEGWQCFVFHDIDLLPLDTRNLYSCPRQPRHMSASIDKLHFKLPYEDIFGGVSAMTLEQFTRVNGFSNKYWGHGGEDDDMSYRLKKINYHIARYKMSIARYAMLDHKKSTPNPKRYQLLSQTSKTFQKDGLSTLEYELVQVVQYHLYTHILVNIDERS
B7: TnGalNAcT(I299M): T. ni GalNAcT mutant, isoleucine 299 to methionine, SEQ ID NO: 45 (protein)
chain: B6 chain with I299M, H336W

What was measured:
β-(1,4)-GalNAcT = β-(1,4)-GalNAcT (Caenorhabditis elegans, UniProt Q9GUM2); conditions: sugar nucleotide as donor substrate; cited from earlier work
[1] = test system: trimmed trastuzumab (core GlcNAc(Fuc) / core GlcNAc, glycan of formula (1)); experiment: Glycosyltransfer of sugar derivative to trimmed (Endo S deglycosylated) trastuzumab, MS analysis; type: biochemical; conditions: overnight; for cumulative conversions of the major and minor product, F2-GalNAz transfer: UDP-F2-GalNAz (18) 1 mM, enzyme 0.25 mg/mL; for cumulative conversions of the major and minor product, F2-GalNBzN3 transfer: UDP-F2-GalNBzN3 (24) 1 mM, enzyme 0.5 mg/mL
Description: Trimming of IgG glycans was performed using Endo S from Streptococcus pyogenes (commercially available from Genovis, Lund, Sweden). The IgG (10 mg/mL) was incubated with Endo S (40 U/mL) in 25 mM Tris pH 8.0 for approximately 16 hours at 37° C. The deglycosylated IgG was concentrated and washed with 10 mM MnCl2 and 25 mM Tris-HCl pH 8.0 using an Amicon Ultra-0.5, Ultracel-10 Membrane (Millipore).
Trastuzumab was subjected to the trimming protocol above. Analysis of the trimmed antibody was performed on a JEOL AccuToF equipped with an Agilent 1100 HPLC. Samples (2 μL) were reduced with DTT (2 μL) during 10 min and subsequently diluted with H2O (40 μL) prior to injection. […] The two peaks of heavy chain belonged to one major product (49496 Da, 90% of total heavy chain), resulting from core GlcNAc(Fuc) substituted trastuzumab, and a minor product (49351 Da, ±10% of total heavy chain), resulting from core GlcNac substituted trastuzumab. This is an example of a glycoprotein comprising a glycan according to formula (1).
A solution of 50 μg (modified) IgG, 1 M Tris-HCl pH 8.0, 1 mM EDTA and 30 mM DTT with a total volume of approximately 70 μL was incubated for 20 minutes at 37° C. to reduce the disulfide bridges allowing to analyze both light and heavy chain. If present, azide-functionalities are reduced to amines under these conditions. Reduced samples were washed trice with milliQ using an Amicon Ultra-0.5, Ultracel-10 Membrane (Millipore) and concentrated to 10 μM (modified) IgG. The reduced IgG was analyzed by electrospray ionization time-of-flight (ESI-TOF) on a JEOL AccuTOF. Deconvoluted spectra were obtained using Magtran software.
Enzymatic introduction of galactose derivative (e.g. azido-containing sugar) onto IgG was effected with a GalNAc-transferase or a mutant thereof. The deglycosylated IgG (prepared as described above, 10 mg/mL) was incubated with a modified UDP-galactose derivative (e.g. an azido-modified sugar-UDP derivative) (0.4 mM) and GalNAcT (1 mg/mL) in 10 mM MnCl2 and 25 mM Tris-HCl pH 8.0 for 16 hours at 30° C. The functionalized IgG (e.g. azido-functionalized IgG) was incubated with protein A agarose (40 μL per mg IgG) for 2 hours at 4° C. The protein A agarose was washed three times with PBS and the IgG was eluted with 100 mM glycine-HCl pH 2.7. The eluted IgG was neutralized with 1 M Tris-HCl pH 8.0 and concentrated and washed with PBS using an Amicon Ultra-0.5, Ultracel-10 Membrane (Millipore) to a concentration of 15-20 mg/mL.
Enzymatic introduction of galactose derivative (e.g. thio-containing sugar 21) onto IgG was effected with a GalNAc-transferase or a mutant thereof. The deglycosylated IgG (prepared as described above, 10 mg/mL) was incubated with a modified UDP-galactose derivative (e.g. an thio-modified sugar-UDP derivative) (2 mM) and GalNAcT (0.2 mg/mL) in 10 mM MnCl2 and 50 mM Tris-HCl pH 6.0 for 16 hours at 30° C. The functionalized IgG (e.g. thio-functionalized trastuzumab) was incubated with protein A agarose (40 μL per mg IgG) for 1 hours at rt. The protein A agarose was washed three times with TBS (pH 6.0) and the IgG was eluted with 100 mM glycine-HCl pH 2.5. The eluted IgG was neutralized with 1 M Tris-HCl pH 7.0 and concentrated and washed with 50 mM Tris-HCl pH 6.0 using an Amicon Ultra-0.5, Ultracel-10 Membrane (Millipore) to a concentration of 15-20 mg/mL.

[2] = cited from earlier work

β-(1,4)-GalNAcT, sequence (Q9GUM2 whole entry): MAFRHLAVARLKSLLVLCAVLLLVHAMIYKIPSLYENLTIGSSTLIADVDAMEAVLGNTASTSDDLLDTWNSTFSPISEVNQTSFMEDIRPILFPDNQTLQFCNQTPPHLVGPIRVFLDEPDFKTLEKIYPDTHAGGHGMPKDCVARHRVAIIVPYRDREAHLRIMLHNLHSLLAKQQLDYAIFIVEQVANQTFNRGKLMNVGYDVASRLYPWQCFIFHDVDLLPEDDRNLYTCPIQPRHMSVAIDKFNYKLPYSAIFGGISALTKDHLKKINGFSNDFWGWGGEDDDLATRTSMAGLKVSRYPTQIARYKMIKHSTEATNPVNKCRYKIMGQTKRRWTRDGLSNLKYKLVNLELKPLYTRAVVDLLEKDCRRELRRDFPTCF

Row | Molecule | cumulative conversions of the major and minor product, F2-GalNAz transfer [1] [%] | cumulative conversions of the major and minor product, F2-GalNBzN3 transfer [1] [%] | other results
1 | CC(=O)N[C@H]1[C@@H](OP(=O)(O)OP(=O)(O)OC[C@H]2O[C@@H](n3ccc(=O)[nH]c3=O)[C@H](O)[C@@H]2O)O[C@H](CO)[C@@H](O)[C@@H]1O [UDP-GlcNAc] | – | – | transferase activity remaining (compared with UDP-GalNAc) (β-(1,4)-GalNAcT): 0.7%
2 | B1 | 24 | – | –
3 | B2 | 95 | 37 | –
4 | B3 | – | 14 | –
5 | B4 | 5 | – | –
6 | B5 | – | – | activity in the presence of Mg2+ ([2]; Mg2+): 25-30%; loss of Mn2+-dependent activity ([2]; Mn2+): 98%
7 | B6 | – | 62 | –
8 | B7 | – | 26 | –
